Patent publication US20220041665A1, “POLYNUCLEOTIDE AND USES THEREOF” (Helsingin yliopisto, priority 2019, published 2022)

What was measured:
Type in all cases: cell-based, human
seipin-mEGFP = assay: FACS screen of auxin perceptive proteins and degrons (mean GFP intensity) in A431 cell pools
Protocol: To search for an improved AID system to solve the issue, a pipeline was first established in human A431 cells to screen AID components (FIG. 2A). Various auxin perceptive proteins and degrons were selected for screening. Several TIR1 and AFB2 proteins from different plant species were tested, as well as degrons derived from AtIAA17 (SEQ ID NO: 3), these including amino acid (aa.) 65-132 (miniAID), aa. 62-109, aa. 71-114. All these degrons were included in the screen. […] These high affinity fragments were tested, assuming higher affinity might translate into more efficient inducible degradation. Degrons with KR dipeptide deletions were tested to see if they would have an effect on enhancing IAA binding affinity, IAA-inducible depletion or as part of a nuclear localization signal. PB1 domain of the AUX/IAA proteins has not been implicated in auxin-inducible degradation, so several other degrons with PB1 domain sequences homologous to miniAID were also tested.
A431 cell pools were generated to stably express different combinations of auxin perceptive protein and degron-fused seipin. Cells were cotransfected with a mixture of three vectors composed of pSH-EFIRES-P expressing an auxin perceptive protein, pSH-EFIRES-B expressing a degron-fused seipin, and pCas9-sgAAVS1 at ratio 3:3:4. Transfected cells were passaged 4-6 h after transfection at 1:5 into 6-well plates. On the next day, cells were selected with 1 μg/ml puromycin (Sigma, P8833) for 2 days, and with 5 μg/ml blasticidin (Gibco, A1113904) for 2 days, then with both antibiotics for at least 6 days before using for FACS analysis.
(§1) For FACS analysis, cells were seeded at 1:5 (for A431) or 1:3 (for A549) into 6-well plate in medium without selection on day 0. On day 1, medium was changed to 2 ml fresh medium without (for 0 h and 1 h IAA samples) or with (for 16 h IAA samples) 0.5 mM IAA. On day 2, the 1 h samples were supplemented with 0.5 ml medium containing 2.5 mM IAA (final 0.5 mM) and incubated for 1 h at 37° C. After treatment, cells were detached with 0.5 ml trypsin at 37° C. for 5-8 min (A549) or 8-12 min (A431), put on ice, and transferred to 1.5 ml Eppendorf tubes containing 0.5 ml serum-free CO2 independent medium (Gibco). The cell suspensions were centrifuged at 4° C., resuspended in 0.3 ml ice-cold serum-free FluoroBrite DMEM (Gibco) and stored on ice prior to FACS analysis. FACS analysis was performed on a BD Influx cell sorter (BD Biosciences-US) with 100 μm nozzle at 4-8° C. using BD FACS Sortware. Cells were gated with SSC, FSC and trigger pulse width for singlets and 100 000 cells were analyzed for each sample. GFP was excited with 488 nm laser and detected with 530/40 detector; mCherry was excited with 561 nm lasers and detected with 615/20 detector. Data was analyzed with BD FACS Sortware. Background subtracted mean fluorescence intensity was used for analysis.

[1] = system: endogenous target proteins tagged with miniIAA7-mEGFP; assay: FACS of mean GFP intensity in cells with endogenously miniIAA7-mEGFP-tagged targets and auxin perceptive proteins
Protocol: as §1
Dynein heavy chain (DHC1) and epidermal growth factor receptor (EGFR) were chosen as the first targets. DHC1 is an essential protein that could not be rapidly depleted by using the OsTIR1-miniAID system in a previous study (Natsume et al., 2016, Cell Rep. 15, 210-218). EGFR is a transmembrane receptor with a canonical function in EGF uptake that can be acutely assessed after protein depletion. Endogenous target loci were tagged homozygously in human cells with miniIAA7-mEGFP through Cas9-mediated homology-directed repair (FIG. 3A). DHC1 was tagged homozygously but it was only possible to tag EGFR heterozygously in A431 cells, likely due to its high copy numbers in this cell type (data not shown). […]
Then the overall performance of the AtAFB2-miniIAA7 system in depleting different endogenous proteins was evaluated. […]

[2] = system: A549 cells with tagged EGFR; assay: EGF uptake in A549 cells with tagged EGFR; conditions: EGFR-OsTIR1 cells
Protocol: A549 cells were seeded at 0.4×10^5 cells per 4-well for 3 days. Medium was changed to fresh medium with or without 0.5 mM IAA for 1 h. Cells were washed twice with ice-cold serum free medium with 1% BSA and 0.2 ml of 2 μg/ml Alexa Fluor™ 647 EGF complex (ThermoFisher, E35351) in serum free medium with 1% BSA was added. Cells were further incubated at 37° C. for 20 min before harvesting with trypsin. Samples were kept on ice before FACS analysis. Alexa Fluor™ 647 was excited with 640 nm laser and detected with 720/40 detector, analysing 20 000 cells per sample. Negative control samples were cells incubated in medium without EGF complex. Background subtracted mean fluorescence intensity was used for analysis.

B1: AtAFB2: Arabidopsis thaliana AFB2, auxin perceptive F-box protein (SEQ ID NO: 96) (protein, listed as Arabidopsis thaliana)
chain: MNYFPDEVIEHVFDFVTSHKDRNAISLVCKSWYKIERYSRQKVFIGNCYAINPERLLRRFPCLKSLTLKGKPHFADFNLVPHEWGGFVLPWIEALARSRVGLEELRLKRMVVTDESLELLSRSFVNFKSLVLVSCEGFTTDGLASIAANCRHLRDLDLQENEIDDHRGQWLSCFPDTCTTLVTLNFACLEGETNLVALERLVARSPNLKSLKLNRAVPLDALARLMACAPQIVDLGVGSYENDPDSESYLKLMAVIKKCTSLRSLSGFLEAAPHCLSAFHPICHNLTSLNLSYAAEIHGSHLIKLIQHCKKLQRLWILDSIGDKGLEVVASTCKELQELRVFPSDLLGGGNTAVTEEGLVAISAGCPKLHSILYFCQQMTNAALVTVAKNCPNFIRFRLCILEPNKPDHVTSQPLDEGFGAIVKACKSLRRLSLSGLLTDQVFLYIGMYANQLEMLSIAFAGDTDKGMLYVLNGCKKMKKLEIRDSPFGDTALLADVSKYETMRSLWMSSCEVTLSGCKRLAEKAPWLNVEIINENDNNRMEENGHEGRQKVDKLYLYRTVVGTRMDAPPFVWIL
**Q.** How did the “target protein level before IAA addition, compared to OsTIR1” value (seipin-mEGFP; miniAID as degron, 0 h IAA) turn out when B1 was run?
**A.** over 5 fold

**Q.** What about the basal depletion (seipin-mEGFP; miniAID as degron, 0 h IAA, compared to OsTIR1) of the same molecule?
**A.** minimal basal depletion

**Q.** And the “auxin-inducible depletion at 1 h IAA” value (seipin-mEGFP; miniAID as degron, 1 h IAA (0.5 mM))?
**A.** inefficient

**Q.** What about the “auxin-inducible depletion at 16 h IAA, compared to OsTIR1” value (seipin-mEGFP; miniAID as degron, 16 h IAA (0.5 mM)) of the same molecule?
**A.** similar

**Q.** What about the “auxin-inducible depletion at 1 h IAA and at longer times” value ([1]; DHC1 (A431) and EGFR (A549) tagged with miniIAA7-mEGFP) of the same molecule?
**A.** efficient auxin-inducible depletion

**Q.** What about the “basal degradation at 0 h IAA” value ([1]; DHC1 (A431) and EGFR (A549) tagged with miniIAA7-mEGFP, 0 h IAA) of the same molecule?
**A.** minimal basal degradation

B2: miniIAA7: degron composed of AtIAA7 (SEQ ID NO: 1) amino acids 37-104 (protein, listed as Arabidopsis thaliana)
chain: GFSETVDLMLNLQSNKEGSVDLKNVSAVPKEKTTLKDPSKPPAKAQVVGWPPVRNYRKNMMTQQKTSS
**Q.** With B2 as the molecule, how does the “reduction of GFP at 1 h IAA” value (seipin-mEGFP; AtAFB2 expressing cells, 1 h IAA) read?
**A.** best reduction of GFP

**Q.** And the “efficiency of protein reduction compared to miniAID” value (seipin-mEGFP; in combination with AtAFB2, 1 h IAA)?
**A.** over 3 fold

B3: OsTIR1: TIR1 derived from Oryza sativa, auxin perceptive protein (protein)
chain: MTYFPEEVVEHIFSFLPAQRDRNTVSLVCKVWYEIERLSRRGVFVGNCYAVRAGRVAARFPNVRALTVKGKPHFADFNLVPPDWGGYAGPWIEAAARGCHGLEELRMKRMVVSDESLELLARSFPRFRALVLISCEGFSTDGLAAVASHCKLLRELDLQENEVEDRGPRWLSCFPDSCTSLVSLNFACIKGEVNAGSLERLVSRSPNLRSLRLNRSVSVDTLAKILLRTPNLEDLGTGNLTDDFQTESYFKLTSALEKCKMLRSLSGFWDASPVCLSFIYPLCAQLTGLNLSYAPTLDASDLTKMISRCVKLQRLWVLDCISDKGLQVVASSCKDLQELRVFPSDFYVAGYSAVTEEGLVAVSLGCPKLNSLLYFCHQMTNAALVTVAKNCPNFTRFRLCILEPGKPDVVTSQPLDEGFGAIVRECKGLQRLSISGLLTDKVFMYIGKYAKQLEMLSIAFAGDSDKGMMHVMNGCKNLRKLEIRDSPFGDAALLGNFARYETMRSLWMSSCNVTLKGCQVLASKMPMLNVEVINERDGSNEMEENHGDLPKVEKLYVYRTTAGARDDAPNFVKIL
**Q.** Which results are given for B3?
**A.** IAA-independent reduction of EGF uptake [2]: severe IAA-independent reduction; basal depletion at 0 h IAA ([1]; EGFR-OsTIR1 cells (A549), 0 h IAA): severe basal depletion
